# Test results taken from paper PMC8358021.
# Legend:
# [1] = molecular target: AbApeR (FabB-like homodimeric ketosynthase of the A. baumannii APE gene cluster) (Acinetobacter baumannii); assay: ITC; 2.0 mM holo ACP1 or holo ACP2 injected (19 injections of 3 µl) into 0.1 mM AbApeO-AbApeC or AbApeR; 25 °C; 40 mM potassium phosphate pH 7.0; 2 mM 2-mercaptoethanol
# [2] = molecular target: AbApeO-AbApeC heterodimer (ketosynthase-chain length factor complex of the aryl polyene biosynthesis gene cluster of Acinetobacter baumannii) (Acinetobacter baumannii); assay: as above
substance,measurement,setting,value
"holo ACP1 (ApeE), acyl carrier protein 1 of the A. baumannii APE gene cluster (natural protein)",Kd,[1],18 µM
same,stoichiometry N,[1],1.55
same,Kd,[2],0.074 µM
same,stoichiometry N,[2],1.63
